Measurements from PMC10397247.

Experiments:
Experiment in all cases: two-hybrid library CCmax;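 note: natural log of median RNA to DNA barcode read ratio; higher means stronger binding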
[1] = target: T1, 4H2198-AA
T1 chain: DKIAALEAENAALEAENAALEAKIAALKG

[2] = target: T2, 4H2553-AA; conditions: mean of both orientations
T2 chain: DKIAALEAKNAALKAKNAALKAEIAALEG

[3] = target: T3, 4H2611-AA; conditions: mean of both orientations
T3 chain: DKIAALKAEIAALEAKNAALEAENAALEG

[4] = target: T4, 4H2620-AA; conditions: mean of both orientations
T4 chain: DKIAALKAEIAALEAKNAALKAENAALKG

[5] = target: T5, 4H2648-AA; conditions: mean of both orientations
T5 chain: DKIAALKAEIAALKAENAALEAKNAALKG

[6] = target: T6, 4H2907-AA; conditions: mean of both orientations
T6 chain: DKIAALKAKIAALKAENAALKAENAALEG

[7] = target: T7, 4H3056-AA; conditions: mean of both orientations
T7 chain: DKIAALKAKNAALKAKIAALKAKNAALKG

[8] = target: T8, 4H3133-AA; conditions: mean of both orientations
T8 chain: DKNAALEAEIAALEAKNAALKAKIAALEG

[9] = target: T9, 4H3162-AA; conditions: mean of both orientations
T9 chain: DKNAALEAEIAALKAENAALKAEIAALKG

[10] = target: T10, 4H32-AA; conditions: mean of both orientations
T10 chain: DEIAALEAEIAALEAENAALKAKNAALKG

[11] = target: T11, 4H3378-AA
T11 chain: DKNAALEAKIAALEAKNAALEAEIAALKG

[12] = target: T12, 4H340-AA; conditions: mean of both orientations
T12 chain: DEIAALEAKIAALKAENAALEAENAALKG

[13] = target: T13, 4H3413-AA; conditions: mean of both orientations
T13 chain: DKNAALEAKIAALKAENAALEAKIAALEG

[14] = target: T14, 4H3588-AA; conditions: mean of both orientations
T14 chain: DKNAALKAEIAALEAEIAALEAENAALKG

[15] = target: T15, 4H3606-AA; conditions: mean of both orientations
T15 chain: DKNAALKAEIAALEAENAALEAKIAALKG

[16] = target: T16, 4H3631-AA; conditions: mean of both orientations
T16 chain: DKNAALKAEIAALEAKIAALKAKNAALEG

[17] = target: T17, 4H3697-AA; conditions: mean of both orientations
T17 chain: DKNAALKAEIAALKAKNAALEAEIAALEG

[18] = target: T18, 4H3718-AA; conditions: mean of both orientations
T18 chain: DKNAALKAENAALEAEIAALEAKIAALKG

[19] = target: T19, 4H384-AA; conditions: mean of both orientations
T19 chain: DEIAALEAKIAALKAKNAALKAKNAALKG

[20] = target: T20, 4H3865-AA; conditions: mean of both orientations
T20 chain: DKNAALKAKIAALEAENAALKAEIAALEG

[21] = target: T21, 4H697-AA; conditions: mean of both orientations
T21 chain: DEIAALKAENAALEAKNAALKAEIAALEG

[22] = target: T22, 4H982-AA; conditions: mean of both orientations
T22 chain: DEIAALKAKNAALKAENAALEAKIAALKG

[23] = target: T23, 4H2728-AA
T23 chain: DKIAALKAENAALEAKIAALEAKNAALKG

[24] = target: T24, 4H2774-AA; conditions: mean of both orientations
T24 chain: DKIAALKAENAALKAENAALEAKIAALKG

[25] = target: T25, 4H2903-AA; conditions: mean of both orientations
T25 chain: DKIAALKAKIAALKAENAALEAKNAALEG

[26] = target: T26, 4H2961-AA; conditions: mean of both orientations
T26 chain: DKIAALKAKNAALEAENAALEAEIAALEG

[27] = target: T27, 4H3049-AA; conditions: mean of both orientations
T27 chain: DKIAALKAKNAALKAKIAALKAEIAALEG

[28] = target: T28, 4H3129-AA; conditions: mean of both orientations
T28 chain: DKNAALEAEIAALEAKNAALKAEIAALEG

[29] = target: T29, 4H341-AA; conditions: mean of both orientations
T29 chain: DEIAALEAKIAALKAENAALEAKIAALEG

[30] = target: T30, 4H3414-AA; conditions: mean of both orientations
T30 chain: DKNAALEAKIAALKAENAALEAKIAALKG

[31] = target: T31, 4H3595-AA; conditions: mean of both orientations
T31 chain: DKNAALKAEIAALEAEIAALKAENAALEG

[32] = target: T32, 4H3629-AA; conditions: mean of both orientations
T32 chain: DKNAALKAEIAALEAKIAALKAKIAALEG

[33] = target: T33, 4H3782-AA; conditions: mean of both orientations
T33 chain: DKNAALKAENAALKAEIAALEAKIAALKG

[34] = target: T34, 4H380-AA; conditions: mean of both orientations
T34 chain: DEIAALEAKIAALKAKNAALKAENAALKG

[35] = target: T35, 4H3939-AA; conditions: mean of both orientations
T35 chain: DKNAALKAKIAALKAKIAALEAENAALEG

[36] = target: T36, 4H3969-AA; conditions: mean of both orientations
T36 chain: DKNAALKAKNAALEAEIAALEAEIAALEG

[37] = target: T37, 4H446-AA; conditions: mean of both orientations
T37 chain: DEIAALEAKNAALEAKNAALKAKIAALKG

[38] = target: T38, 4H464-AA; conditions: mean of both orientations
T38 chain: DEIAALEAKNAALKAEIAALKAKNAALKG

[39] = target: T39, 4H483-AA; conditions: mean of both orientations
T39 chain: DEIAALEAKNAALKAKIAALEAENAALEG

[40] = target: T40, 4H63-AA; conditions: mean of both orientations
T40 chain: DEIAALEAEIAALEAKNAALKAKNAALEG

[41] = target: T41, 4H3651-AA
T41 chain: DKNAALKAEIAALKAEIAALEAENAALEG

[42] = target: T42, 4H3705-AA; conditions: mean of both orientations
T42 chain: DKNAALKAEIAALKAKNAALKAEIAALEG

[43] = target: T43, 4H465-AA; conditions: mean of both orientations
T43 chain: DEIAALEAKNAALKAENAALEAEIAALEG

[44] = target: T44, 4H486-AA; conditions: mean of both orientations
T44 chain: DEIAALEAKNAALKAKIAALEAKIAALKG

[45] = target: T45, 4H535-AA; conditions: mean of both orientations
T45 chain: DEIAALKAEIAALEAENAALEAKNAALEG

[46] = target: T46, 4H58-AA; conditions: mean of both orientations
T46 chain: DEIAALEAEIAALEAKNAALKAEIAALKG

[47] = target: T47, 4H895-AA; conditions: mean of both orientations
T47 chain: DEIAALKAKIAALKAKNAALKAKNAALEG

[48] = target: T48, 4H_APH; conditions: mean of both orientations
T48 chain: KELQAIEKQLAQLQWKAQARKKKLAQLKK

[49] = target: T49, 4H_BCR; conditions: mean of both orientations
T49 chain: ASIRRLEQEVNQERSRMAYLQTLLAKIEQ

[50] = target: 4H_GCN4; conditions: mean of both orientations
[51] = target: GCN2_T

Sequence of 4H_GCN4 (chain, as listed by the source): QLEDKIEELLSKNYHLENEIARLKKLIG

DKIAALEAENAALEAENAALEAKIAALKG [4H2198-AA]
interaction score [1]: 0.363 | interaction score [2]: 1.96 | interaction score [3]: -1.63 | interaction score [4]: -0.832 | interaction score [5]: -1.34 | interaction score [6]: -0.303 | interaction score [7]: -0.0509 | interaction score [8]: -0.581 | interaction score [9]: -1.38 | interaction score [10]: -0.333 | interaction score [11]: -1.47 | interaction score [12]: -1.2 | interaction score [13]: -0.996 | interaction score [14]: -1.24 | interaction score [15]: -1.01 | interaction score [16]: -1.38 | interaction score [17]: -1.16 | interaction score [18]: -0.339 | interaction score [19]: 1.32 | interaction score [20]: -0.834 | interaction score [21]: 1 | interaction score [22]: 1.67

DKIAALKAENAALEAKIAALEAKNAALKG [4H2728-AA]
interaction score [23]: -0.514 | interaction score [24]: -1.68 | interaction score [25]: -1.25 | interaction score [26]: -1.41 | interaction score [27]: 0.953 | interaction score [28]: 0.939 | interaction score [29]: -0.899 | interaction score [30]: -1.03 | interaction score [31]: -1.57 | interaction score [32]: -0.438 | interaction score [33]: -1.28 | interaction score [34]: -1.69 | interaction score [35]: -1.01 | interaction score [36]: -1.14 | interaction score [37]: -0.989 | interaction score [38]: 0.651 | interaction score [39]: 2.24 | interaction score [40]: -0.35

DKNAALKAEIAALKAEIAALEAENAALEG [4H3651-AA]
interaction score [41]: -0.561 | interaction score [42]: -1.53 | interaction score [33]: -0.2 | interaction score [43]: -1.28 | interaction score [44]: -0.82 | interaction score [45]: -1.16 | interaction score [46]: -0.388 | interaction score [47]: 2.08 | interaction score [48]: -1.76 | interaction score [49]: -1.92 | interaction score [50]: -1.81 | interaction score [51]: -1.92
